T1: GDF11 (UniProt O95390 299-407)
T1 construct: also called Growth and differentiation factor-11; BMP11
T1 sequence (looked up): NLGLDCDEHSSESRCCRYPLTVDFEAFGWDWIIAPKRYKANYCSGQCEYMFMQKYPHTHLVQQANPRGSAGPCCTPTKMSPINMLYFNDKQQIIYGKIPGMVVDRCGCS

T2: activin A (UniProt P08476 311-426)
T2 construct: Soluble ligand injected in SPR or added in the reporter assay
T2 sequence (looked up): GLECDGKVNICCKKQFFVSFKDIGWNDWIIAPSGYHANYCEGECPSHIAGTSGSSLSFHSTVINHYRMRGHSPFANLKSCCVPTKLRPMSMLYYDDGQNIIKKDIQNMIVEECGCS

T3: BMP9 (UniProt Q9UK05 320-429)
T3 sequence (looked up): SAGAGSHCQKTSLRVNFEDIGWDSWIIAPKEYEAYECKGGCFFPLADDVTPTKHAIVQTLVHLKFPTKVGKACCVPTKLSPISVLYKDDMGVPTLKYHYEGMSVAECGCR

T4: GDF11 (Homo sapiens, UniProt O95390)
T4 sequence (O95390 299-407): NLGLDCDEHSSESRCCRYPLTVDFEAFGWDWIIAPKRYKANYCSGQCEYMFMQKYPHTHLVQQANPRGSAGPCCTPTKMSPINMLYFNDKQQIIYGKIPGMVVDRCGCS

T5: BMP10 (Homo sapiens, UniProt O95393)
T5 sequence (O95393 317-424): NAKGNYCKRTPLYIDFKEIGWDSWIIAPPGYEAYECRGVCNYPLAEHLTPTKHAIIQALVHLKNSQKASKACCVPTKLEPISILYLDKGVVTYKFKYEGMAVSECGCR

T6: BMP9 (Homo sapiens, UniProt Q9UK05)
T6 sequence (Q9UK05 320-429): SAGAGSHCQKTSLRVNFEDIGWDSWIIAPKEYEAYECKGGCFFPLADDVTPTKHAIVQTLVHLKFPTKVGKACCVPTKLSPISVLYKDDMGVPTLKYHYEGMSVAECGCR

T7: Activin A (Homo sapiens, UniProt P08476)
T7 sequence (P08476 311-426): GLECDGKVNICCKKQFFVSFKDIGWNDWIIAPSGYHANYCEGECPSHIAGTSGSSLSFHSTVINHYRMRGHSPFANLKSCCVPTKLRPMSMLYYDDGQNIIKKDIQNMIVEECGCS

T8: GDF8 (Homo sapiens, UniProt O14793)
T8 sequence (O14793 267-375): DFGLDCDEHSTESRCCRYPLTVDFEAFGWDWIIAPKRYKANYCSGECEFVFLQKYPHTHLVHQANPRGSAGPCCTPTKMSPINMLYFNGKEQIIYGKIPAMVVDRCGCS

T9: Activin B (Homo sapiens, UniProt P09529)
T9 sequence (P09529 293-407): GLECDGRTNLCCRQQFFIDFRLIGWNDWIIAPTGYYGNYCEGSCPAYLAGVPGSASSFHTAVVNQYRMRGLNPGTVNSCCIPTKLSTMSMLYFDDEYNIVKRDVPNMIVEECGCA

T10: BMP6 (Homo sapiens, UniProt P22004)
T10 sequence (P22004 375-513): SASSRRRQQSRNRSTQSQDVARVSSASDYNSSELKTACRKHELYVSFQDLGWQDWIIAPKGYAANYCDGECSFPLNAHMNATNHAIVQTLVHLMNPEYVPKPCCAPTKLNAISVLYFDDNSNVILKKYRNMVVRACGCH

T11: GDF3 (Homo sapiens, UniProt Q9NR23)
T11 sequence (Q9NR23 251-364): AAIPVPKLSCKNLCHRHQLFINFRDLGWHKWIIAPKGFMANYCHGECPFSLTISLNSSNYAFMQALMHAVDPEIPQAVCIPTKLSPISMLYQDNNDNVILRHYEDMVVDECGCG


Columns and labels:
GDF11 [1] = biological target: T1, GDF11; test: cell-based or functional assay
activin A [2] = biological target: T2, activin A; test: cell-based or functional assay
BMP9 [3] = biological target: T3, BMP9; test: cell-based or functional assay
GDF11 [4] = biological target: T4, GDF11; test: Biacore-based binding assay (surface plasmon resonance), GDF11; conditions: for GDF11 binding compared to unmodified ActRIIB-Fc (in words): SPR 37° C., compared to ActRIIB-G1Fc / ActRIIB-Fc homodimer
Method: (§1) To determine ligand binding profiles of variant ActRIIB-Fc homodimers, a Biacore™-based binding assay was used to compare ligand binding kinetics of certain variant ActRIIB-Fc polypeptides. ActRIIB-Fc polypeptides to be tested were independently captured onto the system using an anti-Fc antibody. Ligands were then injected and allowed to flow over the captured receptor protein. ActRIIB-G1Fc was used as the control polypeptide.
as §1, with “protein.” for “protein. ActRIIB-G1Fc was used as the control polypeptide.”
(§2) A Biacore™-based binding assay was used to compare the ligand binding kinetics of an ActRIIB-Fc:ActRIIB(L79E)-Fc heterodimer with those of unmodified ActRIIB-Fc homodimer. Fusion proteins were captured onto the system using an anti-Fc antibody. Ligands were then injected and allowed to flow over the captured receptor protein at 37° C. Results are summarized in the table below, in which ligand off-rates (kd) most indicative of effective ligand traps are denoted in bold.

BMP10 = biological target: T5, BMP10; test: Biacore-based binding assay (surface plasmon resonance), BMP10; conditions: for BMP10 binding compared to ActRIIB-G1Fc (in words): FIGS. 8A and 8B
Method: as §1, §2

BMP9 [5] = biological target: T6, BMP9; test: Biacore-based binding assay (surface plasmon resonance), BMP9; conditions: for binding to BMP9 compared to unmodified ActRIIB-Fc (in words): SPR 37° C., compared to ActRIIB-G1Fc / ActRIIB-Fc homodimer
Method: as §1
as §1, with “protein.” for “protein. ActRIIB-G1Fc was used as the control polypeptide.”
as §2

Activin A [6] = biological target: T7, Activin A; test: Biacore-based binding assay (surface plasmon resonance), activin A; conditions: for activin A binding compared to ActRIIB-G1Fc (in words): FIGS. 8A and 8B
Method: as §1
as §1, with “protein.” for “protein. ActRIIB-G1Fc was used as the control polypeptide.”
as §2

GDF8 = biological target: T8, GDF8; test: Biacore-based binding assay (surface plasmon resonance), GDF8; conditions: for GDF8 binding compared to unmodified ActRIIB-Fc (in words): SPR 37° C., compared to ActRIIB-G1Fc / ActRIIB-Fc homodimer
Method: as §1, §2

Activin B = biological target: T9, Activin B; test: Biacore-based binding assay (surface plasmon resonance), activin B; conditions: for affinity for activin B compared to unmodified ActRIIB-Fc (in words): SPR 37° C., compared to ActRIIB-G1Fc / ActRIIB-Fc homodimer
Method: as §1, §2

BMP6 = biological target: T10, BMP6; test: Biacore-based binding assay (surface plasmon resonance), BMP6
Method: as §2

GDF3 = biological target: T11, GDF3; test: Biacore-based binding assay (surface plasmon resonance), GDF3; conditions: 37° C., capture by anti-Fc antibody
Method: as §2

[7] = 37° C., capture by anti-Fc antibody
[8] = 37° C., capture by anti-Fc antibody, Transient*: indeterminate due to transient nature of interaction

Row | Molecule | IC50 (ng/ml), A204 CAGA12 luciferase reporter assay (GDF11 [1]) | IC50 (ng/ml), A204 CAGA12 luciferase reporter assay (activin A [2]) | IC50 (ng/ml), A204 CAGA12 luciferase reporter assay (BMP9 [3]) | GDF11 binding compared to unmodified ActRIIB-Fc (in words) (GDF11 [4]) | BMP10 binding compared to ActRIIB-G1Fc (in words) (BMP10; SPR 37° C.) | binding to BMP9 compared to unmodified ActRIIB-Fc (in words) (BMP9 [5]) | activin A binding compared to ActRIIB-G1Fc (in words) (Activin A [6]; SPR 37° C.) | GDF8 binding compared to unmodified ActRIIB-Fc (in words) (GDF8) | affinity for activin B compared to unmodified ActRIIB-Fc (in words) (Activin B) | other results
1 | E52A (homodimeric ActRIIB-Fc construct) (Fc fusion) | 71 ng/mL | 198 ng/mL | 359 ng/mL |  |  |  |  |  |  | 
2 | E52K (homodimeric ActRIIB-Fc construct) (Fc fusion) | 296 ng/mL | 762 ng/mL | 10000 ng/mL |  |  |  |  |  |  | 
3 | L79H-F82K: homodimeric ActRIIB-G1Fc fusion with L79H and F82K substitutions; mature SEQ ID NO: 347 |  |  |  | significant decrease in GDF8 and GDF11 binding | decrease in BMP10 binding | decrease in binding to BMP9 | significant decrease | significant decrease in GDF8 and GDF11 binding | relatively high affinity for activin B | 
4 | E50P (homodimeric ActRIIB-Fc construct) (Fc fusion) | 638 ng/mL | 756 ng/mL | 3000 ng/mL |  |  |  |  |  |  | 
5 | L79H-F82I: homodimeric ActRIIB-G1Fc fusion with L79H and F82I substitutions; mature SEQ ID NO: 341 |  |  |  |  | decrease in BMP10 binding | decrease in binding to BMP9 | significant decrease |  | relatively high affinity for activin B | 
6 | ActRIIB-Fc:ActRIIB(L79E)-Fc heterodimer: heteromeric complex of unmodified human ActRIIB-Fc and ActRIIB(L79E)-Fc, each fused to a G1Fc domain with linker (protein) chain 1: GRGEAETRECIYYNANWELERTNQSGLERCEGEQDKRLHCYASWRNSSGTIELVKKGCWEDDFNCYDRQECVATEENPQVYFCCCEGNFCNERFTHLPEAGGPEVTYEPPPTAPTGGGTHTCPPCPAPELLGGPSVFLFPPKPKDTLMISRTPEVTCVVVDVSHEDPEVKFNWYVDGVEVHNAKTKPREEQYNSTYRVVSVLTVLHQDWLNGKEYKCKVSNKALPAPIEKTISKAKGQPREPQVYTLPPSREEMTKNQVSLTCLVKGFYPSDIAVEWESNGQPENNYDTTPPVLDSDGSFFLYSDLTVDKSRWQQGNVFSCSVMHEALHNHYTQKSLSLSPG chain 2: GRGEAETRECIYYNANWELERTNQSGLERCEGEQDKRLHCYASWRNSSGTIELVKKGCWLDDFNCYDRQECVATEENPQVYFCCCEGNFCNERFTHLPEAGGPEVTYEPPPTAPTGGGTHTCPPCPAPELLGGPSVFLFPPKPKDTLMISRTPEVTCVVVDVSHEDPEVKFNWYVDGVEVHNAKTKPREEQYNSTYRVVSVLTVLHQDWLNGKEYKCKVSNKALPAPIEKTISKAKGQPREPQVYTLPPSRKEMTKNQVSLTCLVKGFYPSDIAVEWESNGQPENNYKTTPPVLKSDGSFFLYSKLTVDKSRWQQGNVFSCSVMHEALHNHYTQKSLSLSPGK |  |  |  | largely retained high-affinity binding |  | even greater reduction in the strength of binding to BMP9 |  | largely retained high-affinity binding | largely retained high-affinity binding | ka BMP6 (BMP6; [7]): 3.3e+08 M⁻¹ s⁻¹; kd BMP6 (BMP6; [7]): 0.018 s⁻¹; BMP6 binding compared to ActRIIB-Fc homodimer (in words) (BMP6; SPR 37° C.): largely retained high-affinity binding; ka GDF11 (GDF11 [4]; [7]): 4e+07 M⁻¹ s⁻¹; kd GDF11 (GDF11 [4]; [7]): 0.00036 s⁻¹; ka BMP10 (BMP10; [7]): 4.8e+07 M⁻¹ s⁻¹; kd BMP10 (BMP10; [7]): 0.002 s⁻¹; off-rate for BMP10 compared to ActRIIB-Fc homodimer (BMP10; SPR 37° C.): approximately ten-fold faster off-rates; ka BMP9 (BMP9 [5]; [8]): Transient*; kd BMP9 (BMP9 [5]; [8]): Transient*; ka GDF3 (GDF3): 580000 M⁻¹ s⁻¹; kd GDF3 (GDF3): 0.0059 s⁻¹; ka Activin A (Activin A [6]; [7]): 8.8e+06 M⁻¹ s⁻¹; kd Activin A (Activin A [6]; [7]): 0.0015 s⁻¹; off-rate for activin A compared to ActRIIB-Fc homodimer (Activin A [6]; SPR 37° C.): approximately ten-fold faster off-rates; ka GDF8 (GDF8; [7]): 3.4e+06 M⁻¹ s⁻¹; kd GDF8 (GDF8; [7]): 0.0005 s⁻¹; ka Activin B (Activin B; [7]): 8.3e+06 M⁻¹ s⁻¹; kd Activin B (Activin B; [7]): 0.00021 s⁻¹
